Assay results as given in patent US20250295799A1 (Zymeworks, published 2025).
Changes are numbered by the printed parent chain.

B1: H18L6_LC_G34D mAb, v40203 (antibody, human IgG1, kappa, V domains shown)
VH: QVQLVQSGAEVKKPGSSVKVSCKASGYTFTDYEMHWVKQAPGHGLEWIGAIDPETGDTAYNQKFKGKATLTADTSTSTAYMELSSLRSEDTAVYYCTRYFSFAYWGQGTLVTVSS
VL: EIVLTQSPATLSLSPGERATISCRSSQSLRHSNDNTYLQWYQQKPGQAPRLLIYKVSNRFSGVPARFSGSGSGTDFTLTISSLEPEDFAVYFCYQSKHVPYTFGGGTKVEIKR
B2: H18L6_LC_G34A mAb, v40212 (antibody, human IgG1, kappa, V domains shown)
VH: B1 VH
VL: B1 VL with D34A
notes: M3-H18L6 chains with the stated light chain point mutation, IgG1/kappa
B3: H18L6_LC_G34E mAb, v40204 (antibody, human IgG1, kappa, V domains shown)
VH: B1 VH
VL: B1 VL with D34E
notes: as for B2
B4: H18L6_LC_G34K mAb, v40207 (antibody, human IgG1, kappa, V domains shown)
VH: B1 VH
VL: B1 VL with D34K
notes: Full-size IgG1/kappa

molecular target: T1, human glypican-3 (GPC3) (human, UniProt P51654 25-554); experiment: cell-based or functional assay
For JHH-5 Internalization (MFI) in this document: test concentration or dose not given here.
For JHH-5 Internalization (MFI), Day 0 in mouse plasma in this document: test concentration or dose not given here.
For JHH-5 Internalization (MFI), Day 14 in mouse plasma in this document: test concentration or dose not given here.
For JHH-7 Internalization (MFI) in this document: test concentration or dose not given here.

In order of falling “JHH-5 Internalization (MFI)” value:
1. B4  10000 MFI
2. B2  9070 MFI
3. B1  6770 MFI
4. B3  5770 MFI

In order of rising “JHH-7 Internalization (MFI)” value:
1. B3  4410 MFI
2. B1  5010 MFI
3. B2  8070 MFI
4. B4  8760 MFI

molecular target: T1, human glypican-3 (GPC3); experiment: cell-based or functional assay; remark: another data set of the same source

In order of rising “JHH-5 Internalization (MFI), Day 0 in mouse plasma” value:
1. B3  7100 MFI
2. B1  8690 MFI
3. B2  10200 MFI
4. B4  12800 MFI

In order of rising “JHH-5 Internalization (MFI), Day 14 in mouse plasma” value:
1. B1  5690 MFI
2. B3  6040 MFI
3. B2  7290 MFI
4. B4  11400 MFI

In order of falling “JHH-7 Internalization (MFI), Day 0 in mouse plasma” value:
1. B4  143 MFI
2. B2  131 MFI
3. B1  104 MFI
4. B3  91 MFI

In order of rising “JHH-7 Internalization (MFI), Day 14 in mouse plasma” value:
1. B1  63 MFI
2. B3  73 MFI
3. B2  75 MFI
4. B4  115 MFI

molecular target: T1, human glypican-3 (GPC3); experiment: flow cytometry on JHH-5 cells (GPC3-mid);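 also: antibody binding to cells at 4 °C for 24 h, detected with anti-human AF647 as geometric mean fluorescence of live cells versus antibody concentration, fitted by specific binding with Hill slope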

In order of rising “Bmax (MFI)” value:
1. B2  3850 MFI
2. B3  4140 MFI
3. B1  4280 MFI
4. B4  4740 MFI

In order of rising Kd:
1. B3  0.17 nM
2. B4  0.2 nM
3. B1  0.24 nM
4. B2  0.31 nM

molecular target: T1, human glypican-3 (GPC3); experiment: flow cytometry on JHH-7 cells (GPC3-high);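 also: antibody binding at 4 °C for 24 h, detected with anti-human AF647 secondary, geometric mean fluorescence of live cells versus antibody concentration, fitted as specific binding with Hill slope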
Method: Briefly, cells were seeded at 50,000 cells/well in V-bottom 96-well plates and treated with antibody for 24 hours at 4° C. to prevent internalization. […] Following incubation and washing, fluorescence was detected by flow cytometry on a BD LSRFortessa™ Cell Analyzer (BD Biosciences, Franklin Lake, NJ) with 1,000 minimum events collected per well. AF647/APC-A GeoMean (fluorescence signal geometric mean, proportional to anti-Human AF647 binding) in live cell population was plotted against antibody concentration using GraphPad Prism Version 9 (GraphPad Software, San Diego, CA). The Bmax, Curve Hill Slope (h) and Kd values were derived from the “Specific binding with Hill slope” nonlinear regression curve fit in GraphPad Prism Version 9.

In order of falling “Bmax (MFI)” value:
1. B2  13300 MFI
2. B3  12500 MFI
3. B1  12200 MFI
4. B4  12200 MFI

In order of falling Kd:
1. B2  0.56 nM
2. B3  0.42 nM
3. B1  0.4 nM
4. B4  0.39 nM

molecular target: T1, human glypican-3 (GPC3); experiment: flow cytometry on CHO-S cells transfected with human GPC3;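 also: antibody binding to transiently transfected CHO-S cells after 24 hours at 4 °C, read as geometric mean fluorescence of anti-human AF647 in live cells, fitted against antibody concentration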
Method: (§1) Briefly, CHO—S cells were transiently transfected for −24 hours with a pTT5-based expression plasmid encoding human GPC3 or cynomolgus monkey GPC3, 0.5 μg DNA per 1 million cells, using the Neon™ Transfection System (Thermo Fisher Scientific Corp., Waltham, MA), to transiently express human or cynomolgus monkey GPC3. Cells transfected with GFP were used as negative transfection controls. Following transfection, cells were seeded at 50,000 cells/well in V-bottom 96-well plates and treated with antibody for 24 hours at 4° C. to prevent internalization. […] Following incubation and washing, fluorescence was detected by flow cytometry on a BD LSRFortessa™ Cell Analyzer (BD Biosciences, Franklin Lake, NJ) with 1,000 minimum events collected per well. AF647/APC-A GeoMean (fluorescence signal geometric mean, proportional to anti-Human AF647 binding) in live cell population was plotted against antibody concentration using GraphPad Prism Version 9 (GraphPad Software, San Diego, CA). The Bmax and Kd values were derived from the “Specific binding with Hill slope” nonlinear regression curve fit in GraphPad Prism Version 9.

In order of falling “Bmax (MFI)” value:
1. B1  2470 MFI
2. B4  2330 MFI
3. B3  2260 MFI
4. B2  2200 MFI

In order of rising Kd:
1. B3  0.11 nM
2. B4  0.11 nM
3. B2  0.12 nM
4. B1  0.18 nM

molecular target: T2, cynomolgus monkey glypican-3 (GPC3) (cynomolgus monkey, UniProt A5A6P7 25-554 (Pan troglodytes entry)); experiment: flow cytometry on CHO-S cells transfected with cynomolgus GPC3;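 also: antibodies incubated 24 h at 4 °C with transiently transfected cells, binding read as AF647 geometric mean fluorescence of live cells, GFP-transfected cells as negative control, Hill-slope specific-binding fit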
T2 construct: Transiently expressed on CHO-S cells; also called cynoGPC3; CynoGPC3-CHO
Method: as §1

In order of rising “Bmax (MFI)” value:
1. B1  2870 MFI
2. B3  2870 MFI
3. B4  2930 MFI
4. B2  3160 MFI

In order of rising Kd:
1. B3  0.15 nM
2. B4  0.16 nM
3. B1  0.18 nM
4. B2  0.25 nM

molecular target: T1, human glypican-3 (GPC3); experiment: flow cytometry on JHH-5 cells; antibody in mouse plasma, day 0
Method: (§2) For binding cells were seeded at 50,000 cells/well in V-bottom 96-well plates and treated with antibody for 24 hours at 4° C. to prevent internalization. […] Following incubation and washing, fluorescence was detected by flow cytometry on a BD LSRFortessa™ Cell Analyzer (BD Biosciences, Franklin Lake, NJ) with 1,000 minimum events collected per well. AF647/APC-A GeoMean (fluorescence signal geometric mean, proportional to anti-Human AF647 binding) in live cell population was plotted against antibody concentration using GraphPad Prism Version 9 (GraphPad Software, San Diego, CA). The Bmax, Curve Hill Slope (h) and Kd values were derived from the “Specific binding with Hill slope” nonlinear regression curve fit in GraphPad Prism Version 9.

In order of falling “Bmax (MFI)” value:
1. B4  5490 MFI
2. B2  4930 MFI
3. B3  4760 MFI
4. B1  4660 MFI

In order of falling Kd:
1. B2  0.15 nM
2. B1  0.11 nM
3. B3  0.11 nM
4. B4  0.07 nM

molecular target: T1, human glypican-3 (GPC3); experiment: flow cytometry on JHH-7 cells; antibody in mouse plasma, day 0
Method: as §2

In order of rising “Bmax (MFI)” value:
1. B2  8360 MFI
2. B3  8500 MFI
3. B1  9140 MFI
4. B4  9620 MFI

In order of falling Kd:
1. B2  0.36 nM
2. B1  0.26 nM
3. B3  0.26 nM
4. B4  0.16 nM

molecular target: T1, human glypican-3 (GPC3); experiment: flow cytometry on JHH-5 cells; antibody after 14 days in mouse plasma at 37 C
Method: as §2

In order of rising “Bmax (MFI)” value:
1. B3  4460 MFI
2. B1  4520 MFI
3. B2  6050 MFI
4. B4  6460 MFI

In order of falling Kd:
1. B1  0.34 nM
2. B3  0.26 nM
3. B4  0.26 nM
4. B2  0.23 nM

molecular target: T1, human glypican-3 (GPC3); experiment: flow cytometry on JHH-7 cells; antibody after 14 days in mouse plasma at 37 C
Method: as §2

In order of rising “Bmax (MFI)” value:
1. B1  8060 MFI
2. B3  8430 MFI
3. B4  10900 MFI
4. B2  11300 MFI

In order of falling Kd:
1. B3  0.67 nM
2. B1  0.62 nM
3. B4  0.31 nM
4. B2  0.28 nM
